From paper PMC2115384 (The Journal of Cell Biology, 1989)

Assays:
Assay in all cases: native gel or EMSA
[1] = biological target: fodrin solubilized from MDCK cells (alpha- and beta-subunits) (dog (endogenous in MDCK))
[2] = biological target: ankyrin solubilized from MDCK cells (dog (endogenous in MDCK))
[3] = biological target: purified human erythrocyte spectrin heterotetramers (human, UniProt P02549 1-2419; P11277 1-2137)
purified human erythrocyte spectrin heterotetramers, sequence (P02549 whole entry, chain 1 of 2): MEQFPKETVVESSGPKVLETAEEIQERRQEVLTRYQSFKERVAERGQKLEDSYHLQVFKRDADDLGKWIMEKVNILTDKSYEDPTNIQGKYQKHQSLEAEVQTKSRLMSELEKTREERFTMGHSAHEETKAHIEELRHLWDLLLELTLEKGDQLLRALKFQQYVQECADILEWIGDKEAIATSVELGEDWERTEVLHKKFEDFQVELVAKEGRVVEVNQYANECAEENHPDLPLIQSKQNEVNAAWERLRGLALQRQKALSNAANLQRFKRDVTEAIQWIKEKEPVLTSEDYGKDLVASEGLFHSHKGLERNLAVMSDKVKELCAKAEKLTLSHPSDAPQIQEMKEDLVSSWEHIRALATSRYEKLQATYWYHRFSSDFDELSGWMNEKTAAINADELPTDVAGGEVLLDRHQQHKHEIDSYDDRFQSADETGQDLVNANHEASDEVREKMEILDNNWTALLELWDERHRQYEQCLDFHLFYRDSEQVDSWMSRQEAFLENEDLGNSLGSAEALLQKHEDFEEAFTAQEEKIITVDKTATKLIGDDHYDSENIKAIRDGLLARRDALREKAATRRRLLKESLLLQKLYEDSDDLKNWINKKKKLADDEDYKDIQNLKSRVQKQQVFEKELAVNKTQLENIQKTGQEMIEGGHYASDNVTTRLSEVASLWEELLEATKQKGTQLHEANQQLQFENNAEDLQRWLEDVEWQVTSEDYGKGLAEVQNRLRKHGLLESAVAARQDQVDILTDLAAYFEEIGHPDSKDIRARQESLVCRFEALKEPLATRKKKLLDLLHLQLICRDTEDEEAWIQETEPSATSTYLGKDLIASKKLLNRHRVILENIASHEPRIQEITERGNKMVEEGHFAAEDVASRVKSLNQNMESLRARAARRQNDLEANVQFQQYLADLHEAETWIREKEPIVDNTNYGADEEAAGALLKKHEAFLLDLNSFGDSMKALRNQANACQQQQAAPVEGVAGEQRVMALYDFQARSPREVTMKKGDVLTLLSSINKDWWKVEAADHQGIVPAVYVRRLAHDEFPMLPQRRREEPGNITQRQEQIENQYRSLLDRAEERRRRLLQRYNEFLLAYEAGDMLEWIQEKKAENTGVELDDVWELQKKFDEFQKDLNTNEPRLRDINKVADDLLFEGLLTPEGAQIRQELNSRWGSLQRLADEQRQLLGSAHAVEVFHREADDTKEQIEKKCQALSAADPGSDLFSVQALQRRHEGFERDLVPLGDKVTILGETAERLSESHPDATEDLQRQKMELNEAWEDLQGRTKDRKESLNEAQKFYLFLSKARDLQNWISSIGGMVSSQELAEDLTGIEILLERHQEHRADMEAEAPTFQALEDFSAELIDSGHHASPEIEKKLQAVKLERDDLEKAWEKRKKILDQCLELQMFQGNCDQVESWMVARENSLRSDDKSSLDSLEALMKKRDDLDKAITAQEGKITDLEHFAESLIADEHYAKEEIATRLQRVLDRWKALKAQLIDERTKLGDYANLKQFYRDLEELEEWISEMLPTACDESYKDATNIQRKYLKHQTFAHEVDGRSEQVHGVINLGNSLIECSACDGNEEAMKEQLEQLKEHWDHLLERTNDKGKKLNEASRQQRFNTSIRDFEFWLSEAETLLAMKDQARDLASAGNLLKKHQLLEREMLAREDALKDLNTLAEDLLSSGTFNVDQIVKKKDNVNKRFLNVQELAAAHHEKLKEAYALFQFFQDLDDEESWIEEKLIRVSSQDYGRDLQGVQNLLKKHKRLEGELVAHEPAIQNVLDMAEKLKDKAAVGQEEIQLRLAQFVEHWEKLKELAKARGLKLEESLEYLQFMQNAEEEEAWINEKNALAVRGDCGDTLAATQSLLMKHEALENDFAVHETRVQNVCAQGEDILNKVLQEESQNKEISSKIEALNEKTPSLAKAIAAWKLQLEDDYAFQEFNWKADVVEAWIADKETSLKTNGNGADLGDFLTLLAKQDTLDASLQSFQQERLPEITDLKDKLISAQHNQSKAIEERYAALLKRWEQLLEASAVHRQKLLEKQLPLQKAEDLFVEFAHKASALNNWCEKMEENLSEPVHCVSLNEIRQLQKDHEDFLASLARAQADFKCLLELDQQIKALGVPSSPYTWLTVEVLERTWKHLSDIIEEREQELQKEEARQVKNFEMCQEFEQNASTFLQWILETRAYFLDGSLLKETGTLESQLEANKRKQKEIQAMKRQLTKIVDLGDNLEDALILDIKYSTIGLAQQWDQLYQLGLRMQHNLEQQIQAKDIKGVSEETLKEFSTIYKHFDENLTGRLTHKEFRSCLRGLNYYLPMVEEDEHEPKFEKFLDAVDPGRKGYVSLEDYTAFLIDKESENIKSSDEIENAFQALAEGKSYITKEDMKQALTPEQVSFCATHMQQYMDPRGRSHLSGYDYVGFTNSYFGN
purified human erythrocyte spectrin heterotetramers, sequence (P11277 whole entry, chain 2 of 2): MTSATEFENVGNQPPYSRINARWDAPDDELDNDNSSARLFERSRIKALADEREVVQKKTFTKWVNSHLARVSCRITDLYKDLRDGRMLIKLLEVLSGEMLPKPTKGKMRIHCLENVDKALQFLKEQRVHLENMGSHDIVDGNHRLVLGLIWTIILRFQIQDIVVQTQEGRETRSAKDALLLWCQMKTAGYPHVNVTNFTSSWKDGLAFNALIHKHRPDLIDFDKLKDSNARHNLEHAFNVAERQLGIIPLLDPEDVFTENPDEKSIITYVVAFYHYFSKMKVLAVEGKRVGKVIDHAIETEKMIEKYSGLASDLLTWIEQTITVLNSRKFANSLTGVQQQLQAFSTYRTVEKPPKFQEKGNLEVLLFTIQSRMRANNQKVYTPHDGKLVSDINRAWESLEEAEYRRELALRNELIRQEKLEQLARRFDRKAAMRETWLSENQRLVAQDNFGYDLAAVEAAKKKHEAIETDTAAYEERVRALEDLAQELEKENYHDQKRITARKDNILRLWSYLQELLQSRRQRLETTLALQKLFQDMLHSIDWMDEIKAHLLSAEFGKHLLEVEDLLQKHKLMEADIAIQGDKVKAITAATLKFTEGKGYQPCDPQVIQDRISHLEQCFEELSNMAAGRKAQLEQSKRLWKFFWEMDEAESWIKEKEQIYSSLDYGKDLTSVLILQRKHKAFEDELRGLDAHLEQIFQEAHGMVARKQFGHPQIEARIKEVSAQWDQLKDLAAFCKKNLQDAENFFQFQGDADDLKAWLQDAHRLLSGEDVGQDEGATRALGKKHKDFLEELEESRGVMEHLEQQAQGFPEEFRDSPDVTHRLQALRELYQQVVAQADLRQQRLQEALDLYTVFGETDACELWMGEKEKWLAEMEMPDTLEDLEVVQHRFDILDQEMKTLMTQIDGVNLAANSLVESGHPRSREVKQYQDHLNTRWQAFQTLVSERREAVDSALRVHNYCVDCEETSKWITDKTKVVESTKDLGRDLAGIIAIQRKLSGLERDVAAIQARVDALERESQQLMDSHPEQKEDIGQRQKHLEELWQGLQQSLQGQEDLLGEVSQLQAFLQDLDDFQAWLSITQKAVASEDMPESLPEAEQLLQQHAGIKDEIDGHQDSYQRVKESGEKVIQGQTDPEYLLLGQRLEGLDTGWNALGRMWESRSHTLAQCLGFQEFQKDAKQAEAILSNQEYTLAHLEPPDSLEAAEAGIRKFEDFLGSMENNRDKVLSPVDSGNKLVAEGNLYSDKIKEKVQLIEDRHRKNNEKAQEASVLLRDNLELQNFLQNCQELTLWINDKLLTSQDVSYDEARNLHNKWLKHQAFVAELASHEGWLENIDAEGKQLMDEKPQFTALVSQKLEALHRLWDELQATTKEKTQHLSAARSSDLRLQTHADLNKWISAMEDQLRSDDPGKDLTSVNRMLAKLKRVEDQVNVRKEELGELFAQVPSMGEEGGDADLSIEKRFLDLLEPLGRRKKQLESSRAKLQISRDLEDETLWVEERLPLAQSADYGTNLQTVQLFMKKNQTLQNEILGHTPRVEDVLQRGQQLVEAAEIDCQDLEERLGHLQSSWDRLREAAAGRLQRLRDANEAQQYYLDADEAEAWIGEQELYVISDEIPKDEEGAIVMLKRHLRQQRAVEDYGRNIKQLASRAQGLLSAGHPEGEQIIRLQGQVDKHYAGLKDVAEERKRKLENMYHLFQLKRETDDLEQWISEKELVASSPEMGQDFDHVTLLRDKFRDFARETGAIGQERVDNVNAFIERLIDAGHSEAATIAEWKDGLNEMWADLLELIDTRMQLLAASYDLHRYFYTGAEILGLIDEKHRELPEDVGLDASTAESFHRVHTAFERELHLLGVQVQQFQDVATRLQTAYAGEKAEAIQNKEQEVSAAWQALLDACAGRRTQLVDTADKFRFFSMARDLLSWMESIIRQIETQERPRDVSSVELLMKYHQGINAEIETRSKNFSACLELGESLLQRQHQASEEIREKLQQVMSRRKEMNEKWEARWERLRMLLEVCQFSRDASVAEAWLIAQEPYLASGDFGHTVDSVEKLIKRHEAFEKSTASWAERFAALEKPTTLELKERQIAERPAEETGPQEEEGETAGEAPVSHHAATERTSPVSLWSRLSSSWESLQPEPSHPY

Row | percent of solubilized Na+,K+-ATPase comigrating with ankyrin and fodrin [1] | percent of solubilized Na+,K+-ATPase comigrating with ankyrin and fodrin [2] | binding result [3] | Molecule
1 | > 80% | > 80% | – | Na+,K+-ATPase solubilized from MDCK cells (alpha- and beta-subunits) (from UniProt P50997 1-1021; P06583 1-303) (complex)
2 | – | – | binds | purified human erythrocyte ankyrin (natural protein, UniProt P16157 1-1881, looked up) MPYSVGFREADAATSFLRAARSGNLDKALDHLRNGVDINTCNQNGLNGLHLASKEGHVKMVVELLHKEIILETTTKKGNTALHIAALAGQDEVVRELVNYGANVNAQSQKGFTPLYMAAQENHLEVVKFLLENGANQNVATEDGFTPLAVALQQGHENVVAHLINYGTKGKVRLPALHIAARNDDTRTAAVLLQNDPNPDVLSKTGFTPLHIAAHYENLNVAQLLLNRGASVNFTPQNGITPLHIASRRGNVIMVRLLLDRGAQIETKTKDELTPLHCAARNGHVRISEILLDHGAPIQAKTKNGLSPIHMAAQGDHLDCVRLLLQYDAEIDDITLDHLTPLHVAAHCGHHRVAKVLLDKGAKPNSRALNGFTPLHIACKKNHVRVMELLLKTGASIDAVTESGLTPLHVASFMGHLPIVKNLLQRGASPNVSNVKVETPLHMAARAGHTEVAKYLLQNKAKVNAKAKDDQTPLHCAARIGHTNMVKLLLENNANPNLATTAGHTPLHIAAREGHVETVLALLEKEASQACMTKKGFTPLHVAAKYGKVRVAELLLERDAHPNAAGKNGLTPLHVAVHHNNLDIVKLLLPRGGSPHSPAWNGYTPLHIAAKQNQVEVARSLLQYGGSANAESVQGVTPLHLAAQEGHAEMVALLLSKQANGNLGNKSGLTPLHLVAQEGHVPVADVLIKHGVMVDATTRMGYTPLHVASHYGNIKLVKFLLQHQADVNAKTKLGYSPLHQAAQQGHTDIVTLLLKNGASPNEVSSDGTTPLAIAKRLGYISVTDVLKVVTDETSFVLVSDKHRMSFPETVDEILDVSEDEGEELISFKAERRDSRDVDEEKELLDFVPKLDQVVESPAIPRIPCAMPETVVIRSEEQEQASKEYDEDSLIPSSPATETSDNISPVASPVHTGFLVSFMVDARGGSMRGSRHNGLRVVIPPRTCAAPTRITCRLVKPQKLSTPPPLAEEEGLASRIIALGPTGAQFLSPVIVEIPHFASHGRGDRELVVLRSENGSVWKEHRSRYGESYLDQILNGMDEELGSLEELEKKRVCRIITTDFPLYFVIMSRLCQDYDTIGPEGGSLKSKLVPLVQATFPENAVTKRVKLALQAQPVPDELVTKLLGNQATFSPIVTVEPRRRKFHRPIGLRIPLPPSWTDNPRDSGEGDTTSLRLLCSVIGGTDQAQWEDITGTTKLVYANECANFTTNVSARFWLSDCPRTAEAVNFATLLYKELTAVPYMAKFVIFAKMNDPREGRLRCYCMTDDKVDKTLEQHENFVEVARSRDIEVLEGMSLFAELSGNLVPVKKAAQQRSFHFQSFRENRLAMPVKVRDSSREPGGSLSFLRKAMKYEDTQHILCHLNITMPPCAKGSGAEDRRRTPTPLALRYSILSESTPGSLSGTEQAEMKMAVISEHLGLSWAELARELQFSVEDINRIRVENPNSLLEQSVALLNLWVIREGQNANMENLYTALQSIDRGEIVNMLEGSGRQSRNLKPDRRHTDRDYSLSPSQMNGYSSLQDELLSPASLGCALSSPLRADQYWNEVAVLDAIPLAATEHDTMLEMSDMQVWSAGLTPSLVTAEDSSLECSKAEDSDATGHEWKLEGALSEEPRGPELGSLELVEDDTVDSDATNGLIDLLEQEEGQRSEEKLPGSKRQDDATGAGQDSENEVSLVSGHQRGQARITHSPTVSQVTERSQDRLQDWDADGSIVSYLQDAAQGSWQEEVTQGPHSFQGTSTMTEGLEPGGSQEYEKVLVSVSEHTWTEQPEAESSQADRDRRQQGQEEQVQEAKNTFTQVVQGNEFQNIPGEQVTEEQFTDEQGNIVTKKIIRKVVRQIDLSSADAAQEHEEVTVEGPLEDPSELEVDIDYFMKHSKDHTSTPNP
